# Test results as given in patent US12214052.
# Target: CD22
# Test: BLI
row,Substance,Kd [nM]
1,Epratuzumab Fab,59
2,Epratuzumab Fab-Ferritin,51
